Earlier results in article PMC4082410.

Experiments:
Test in all cases: kinetics
[1] = molecular target: preMADH (Paracoccus denitrificans) (UniProt P22619)
[2] = molecular target: quinol MADH (Paracoccus denitrificans) (UniProt P22619)
[3] = molecular target: quinone MADH (Paracoccus denitrificans) (UniProt P22619)

Row | Substance | Kd [1] [µM] | Kd [2] [µM] | Kd [3] [µM]
1 | bis-Fe(IV) MauG (from UniProt Q51658) | < 1.5 | 11.2 | –
2 | diferrous MauG (from UniProt Q51658) | – | – | 10.1
